Square brackets hold non-standard residues; d marks the D form. Ends that are not written are not given here. pS = N[C@@H](COP(=O)(O)O)C(=O)O
Molecular target: mouse Pih1 PIH domain Lys 153 charge reversal mutant (mouse, UniProt Q9CQJ2 1-200, Charge reversal of a conserved residue Lys 153)
Assay: ITC

mouse Pih1 PIH domain Lys 153 charge reversal mutant, sequence (Q9CQJ2 other isoform, or with tags, fused parts or gaps Charge reversal of a conserved residue Lys 153 | mutant): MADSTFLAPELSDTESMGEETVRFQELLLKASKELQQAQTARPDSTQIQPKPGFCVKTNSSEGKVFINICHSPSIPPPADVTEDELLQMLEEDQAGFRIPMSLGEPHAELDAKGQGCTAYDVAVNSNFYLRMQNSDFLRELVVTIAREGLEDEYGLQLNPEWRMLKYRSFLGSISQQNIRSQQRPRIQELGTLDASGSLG

Kd: 220 nM
Binder: QGSD[pS]ELD[pS]DDEF [mouse Tel2 484-496 peptide, bis-phosphorylated pSer 488 and pSer 492 (QGSDpSELDpSDDEF)]
